Reference: PMC3608554

Target: PLCg2 (UniProt P16885)
Test: anti-PLCg2 IP, anti-BANK1 blot
Settings: reference: wild type; sites Y484,Y488

binding against the reference: weaker
Substance: BANK1 (from UniProt Q8NDB2) Y484F/Y488F
